Literature values as cited in publication PMC13142048.

Key:
[1] = target: CD226 (DNAM-1) (Homo sapiens) (UniProt Q15762)
[2] = target: CD96 (TACTILE) (Homo sapiens) (UniProt P40200)
[3] = target: TIGIT (Homo sapiens) (UniProt Q495A1)
Chain of UniProt Q495A1 (Q495A1 22-141): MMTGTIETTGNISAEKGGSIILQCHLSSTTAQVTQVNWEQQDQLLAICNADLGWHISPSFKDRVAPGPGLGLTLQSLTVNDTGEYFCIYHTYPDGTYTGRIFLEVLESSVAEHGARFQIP

Chain of UniProt P40200 (P40200 22-519): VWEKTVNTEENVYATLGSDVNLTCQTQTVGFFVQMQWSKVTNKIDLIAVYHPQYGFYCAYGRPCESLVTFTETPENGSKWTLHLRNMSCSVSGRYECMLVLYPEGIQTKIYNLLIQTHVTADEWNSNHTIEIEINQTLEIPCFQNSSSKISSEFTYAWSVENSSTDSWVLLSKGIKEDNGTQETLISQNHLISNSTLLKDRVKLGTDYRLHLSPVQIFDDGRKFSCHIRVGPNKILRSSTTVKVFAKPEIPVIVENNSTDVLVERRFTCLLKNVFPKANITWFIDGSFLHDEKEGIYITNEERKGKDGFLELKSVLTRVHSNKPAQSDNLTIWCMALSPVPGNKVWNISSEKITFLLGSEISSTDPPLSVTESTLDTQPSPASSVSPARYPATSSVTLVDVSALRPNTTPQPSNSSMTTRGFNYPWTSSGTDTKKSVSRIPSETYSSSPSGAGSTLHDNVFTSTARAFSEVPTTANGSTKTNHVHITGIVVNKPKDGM
Chain of UniProt Q15762 (Q15762 19-254): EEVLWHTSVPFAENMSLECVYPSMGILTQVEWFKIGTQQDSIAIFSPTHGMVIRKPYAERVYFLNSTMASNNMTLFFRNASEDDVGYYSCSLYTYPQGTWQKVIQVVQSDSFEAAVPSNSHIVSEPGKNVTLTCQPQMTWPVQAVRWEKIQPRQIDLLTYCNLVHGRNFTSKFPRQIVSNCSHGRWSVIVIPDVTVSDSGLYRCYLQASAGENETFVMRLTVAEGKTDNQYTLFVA

Kd [1]: 119 nM
Kd [2]: 37.6 nM
Kd [3]: 3.15 nM
Substance: CD155 (from UniProt P15151)
